In the assay the target is human full-length LRRK2 (leucine-rich repeat kinase 2), purified (human, UniProt Q5S007 1-2527). Briefly: cryo-EM structure.

The source of these data is article PMC11439917 (Nature Communications, 2024).

Chain of human full-length LRRK2 (leucine-rich repeat kinase 2), purified (Q5S007 whole entry): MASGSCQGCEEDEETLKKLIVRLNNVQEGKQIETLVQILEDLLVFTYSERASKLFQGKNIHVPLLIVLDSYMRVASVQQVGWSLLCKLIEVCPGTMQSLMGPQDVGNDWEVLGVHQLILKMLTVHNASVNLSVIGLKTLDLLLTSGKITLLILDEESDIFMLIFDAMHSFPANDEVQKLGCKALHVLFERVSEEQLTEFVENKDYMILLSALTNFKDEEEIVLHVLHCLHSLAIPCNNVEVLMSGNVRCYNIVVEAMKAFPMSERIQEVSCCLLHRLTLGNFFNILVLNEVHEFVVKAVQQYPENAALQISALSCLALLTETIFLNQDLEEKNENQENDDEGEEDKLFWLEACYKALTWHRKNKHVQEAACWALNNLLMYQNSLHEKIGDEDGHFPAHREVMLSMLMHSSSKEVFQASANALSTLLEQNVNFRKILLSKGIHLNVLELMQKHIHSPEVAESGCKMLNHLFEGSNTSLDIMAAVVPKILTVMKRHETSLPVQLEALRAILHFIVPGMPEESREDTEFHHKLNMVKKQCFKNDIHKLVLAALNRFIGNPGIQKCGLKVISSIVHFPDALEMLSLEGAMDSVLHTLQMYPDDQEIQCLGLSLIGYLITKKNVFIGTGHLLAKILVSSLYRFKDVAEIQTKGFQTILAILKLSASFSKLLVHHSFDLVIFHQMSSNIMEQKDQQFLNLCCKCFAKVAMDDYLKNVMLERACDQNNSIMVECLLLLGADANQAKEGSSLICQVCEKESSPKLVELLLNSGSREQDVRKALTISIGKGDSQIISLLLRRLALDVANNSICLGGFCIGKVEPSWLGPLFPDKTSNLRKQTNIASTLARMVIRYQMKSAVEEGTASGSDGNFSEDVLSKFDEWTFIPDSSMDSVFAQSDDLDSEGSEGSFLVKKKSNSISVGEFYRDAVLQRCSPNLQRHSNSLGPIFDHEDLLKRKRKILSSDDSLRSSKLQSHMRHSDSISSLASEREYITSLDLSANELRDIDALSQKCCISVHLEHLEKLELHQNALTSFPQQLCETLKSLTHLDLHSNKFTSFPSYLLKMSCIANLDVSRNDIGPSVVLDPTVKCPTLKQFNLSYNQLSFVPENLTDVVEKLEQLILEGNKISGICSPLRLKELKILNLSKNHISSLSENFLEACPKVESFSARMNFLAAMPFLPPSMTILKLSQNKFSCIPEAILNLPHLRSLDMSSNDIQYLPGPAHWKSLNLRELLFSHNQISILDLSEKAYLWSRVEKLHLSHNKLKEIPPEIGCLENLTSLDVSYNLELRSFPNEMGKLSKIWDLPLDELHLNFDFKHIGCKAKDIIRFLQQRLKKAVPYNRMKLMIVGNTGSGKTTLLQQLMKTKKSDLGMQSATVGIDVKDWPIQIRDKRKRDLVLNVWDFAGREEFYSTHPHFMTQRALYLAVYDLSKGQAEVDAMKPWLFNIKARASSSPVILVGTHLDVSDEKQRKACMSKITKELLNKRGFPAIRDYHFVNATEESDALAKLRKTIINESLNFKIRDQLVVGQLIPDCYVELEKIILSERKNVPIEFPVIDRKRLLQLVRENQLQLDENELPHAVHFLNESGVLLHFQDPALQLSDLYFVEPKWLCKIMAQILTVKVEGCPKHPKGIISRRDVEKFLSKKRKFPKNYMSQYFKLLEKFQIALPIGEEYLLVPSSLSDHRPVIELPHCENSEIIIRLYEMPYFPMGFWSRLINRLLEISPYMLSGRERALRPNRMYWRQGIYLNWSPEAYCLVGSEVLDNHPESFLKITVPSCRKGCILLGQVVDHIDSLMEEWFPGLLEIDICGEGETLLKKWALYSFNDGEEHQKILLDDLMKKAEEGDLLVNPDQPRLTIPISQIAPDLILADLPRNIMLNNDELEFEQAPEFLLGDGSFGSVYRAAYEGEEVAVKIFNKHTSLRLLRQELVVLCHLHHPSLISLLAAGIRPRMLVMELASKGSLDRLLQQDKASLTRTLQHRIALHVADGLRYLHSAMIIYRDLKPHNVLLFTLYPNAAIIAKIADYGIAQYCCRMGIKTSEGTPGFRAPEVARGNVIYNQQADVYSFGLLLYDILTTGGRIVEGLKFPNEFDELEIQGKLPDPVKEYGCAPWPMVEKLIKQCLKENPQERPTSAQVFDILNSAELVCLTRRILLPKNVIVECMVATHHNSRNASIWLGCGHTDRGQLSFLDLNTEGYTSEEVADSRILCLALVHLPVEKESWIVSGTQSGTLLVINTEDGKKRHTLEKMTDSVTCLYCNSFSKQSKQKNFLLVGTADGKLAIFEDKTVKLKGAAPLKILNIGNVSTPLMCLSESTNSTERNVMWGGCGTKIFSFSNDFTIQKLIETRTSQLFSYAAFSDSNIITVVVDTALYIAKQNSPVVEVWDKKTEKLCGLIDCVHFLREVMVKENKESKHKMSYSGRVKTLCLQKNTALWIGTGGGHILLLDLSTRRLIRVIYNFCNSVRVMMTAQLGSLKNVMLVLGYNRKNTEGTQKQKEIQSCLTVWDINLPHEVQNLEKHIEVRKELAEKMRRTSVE

B1: human RAB12 (residues 36-211) Q101L, GppNHp-bound (domain or fragment)
chain: PRPADFKLQVIIIGSRGVGKTSLMERFTDDTFCEACKSTVGVDFKIKTVELRGKKIRLQIWDTAGLERFNSITSAYYRSAKGIILVYDITKKETFDDLPKWMKMIDKYASEDAELLLVGNKLDCETDREITRQQGEKFAQQITGMRFCEASAKDNFNVDEIFLKLVDDILKKMPLD
With B1, the binding result was “binds”.
